We go through three molecules from US20230272378A1, “ENCODING AND EXPRESSION OF ACE-tRNAs” (University of Rochester, priority 2020, published 2023).

In one data set the test system is p.W1282X-CFTR mRNA. The data set can be described thus: qPCR of steady state CFTR mRNA (NMD inhibition) in p.W1282X 16HBE14o- cells. As to conditions: pW1282X cells; 48 hours after transfection; equal amounts; plain ACE-tRNA^Leu = plasmid. In kind it is cell-based, human. The text has this: (§1) (A) Representative image of 16HBE14o- cells transfected on Transwells. (B) Representative Cl^− short circuit current traced from WT (Black), p.R1162X 16HBE14oe- cells transfected with empty vector (red) and 500 bp ACE-tRNA^Arg CEDTs (blue) in Ussing chamber recordings. […] All constructs were transfected at equal amounts. *p<0.05; **p<0.0001.
(§2) The majority of prior studies had used suppressor tRNAs to rescue PTCs encoded from cDNAs. […] In this example, 16HBE14o- cells, human bronchiole epithelial cell line, were used to determine ACE-tRNAs PTC suppression activity within the endogenous genomic landscape. Also used were mutant 16HBE14o- cells, which were CRISPR/Cas9 modified to harbor CF causing PTCs at positions p.G542X-, p.R1162X- and p.W1282X-CFTR. The cells were used to study CFTR and airway epithelia biology (Cozens, A. L. et al. American journal of respiratory cell and molecular biology 10, 38-47 (1994)).
(§3) The inventors next looked to see if ACE-tRNAs inhibited NMD following transfection of ACE-tRNA transcripts.
It had been previously shown that leucine at CFTR p.W1282 (p.W1282L) gives ˜80% WT CFTR function, as measured with Ussing chamber recordings (Xue, X. et al., Human molecular genetics 26, 3116-3129, doi:10.1093/hmg/ddx196 (2017)).
(In general: In qPCR the cycle at which signal appears reflects the starting amount.)

A further data set relates to W1282X-CFTR mRNA. Kind of data set: CFTR mRNA expression in W1282X-CFTR 16HBE14ge- cells. In kind it is cell-based, human. The method, then:
In this example, studies were carried out to examine and compare rescues of endogenous CFTR PTCs with a conventional PTC readthrough agent (i.e., G418) and ACE-tRNAs delivered in plasmids. To that end, an engineered human bronchiole epithelial cell line, 16HBE14ge-, was used (Valley et al., Journal of Cystic Fibrosis, Volume 18, Issue 4, July 2019, Pages 476-483). G418 (Geneticin) is a standard PTC readthrough agent that works by interacting with the decoding center of the ribosome and promoting the suppression of PTCs with near-cognate tRNAs, thus incorporating wrong amino acids in many instances. Due to its non-specific nature, rescue by G418 results in generation of a missense mutation from a nonsense mutation. In contrast, ACE-tRNAs as disclosed herein put in the desired amino acid.
To carry out the assays, wildtype 16HBE14ge- cells or 16HBE14ge- cells having the W1282X-CFTR or R1162X-CFTR mutation were (i) treated with 100 uM G418 or vehicle, or (ii) transfected with empty plasmids or various plasmids encoding one or four copies of three ACE-tRNAs (SEQ ID NOs: 8, 4, and 1): 1×ACE-tRNA^Arg 4×ACE-tRNA^Arg, 1×ACE-tRNA^Leu 4×ACE-tRNA^Leu, 1×ACE-tRNA^Trp, and 4×ACE-tRNA^Trp in the manner described in Example 4. After 48 hours, the corresponding CFTR mRNA expression levels were then determined.
In this example, assays were carried out to examine and compare rescues of endogenous CFTR PTCs with ACE-tRNAs delivered in different formats e.g., plasmids, CEDTs, and MCs. The above described 16HBE14ge- cells, which expressed the PTC readthrough reporter piggyBac transgene (FIG. 15A) was used. More specifically, the cells were transfected with plasmids, CEDTs, or MCs encoding ACE-tRNAs. The cells were then sorted by FACS and mRNA was isolated from the non-green cells and green cells. Targeted RT-qPCR was used to quantify CFTR mRNA expression. […]
Further assays were carried out using 16HBEge- cells having W1282X-CFTR and the PTC readthrough reporter piggyBac transgene. […] The cells were NOT sorted by FACS for mRNA expression analysis, rather the entire population was analyzed.

The test system of data set [1] is nuclei of nondividing cells. The data set can be described thus: Nuclear localization of DNA after cytoplasmic microinjection. The format is cell-based. The source says:
(D) Schematic of ACE-tRNA MC and CEDT with SV40 DTS.
Inventors have screened over 60 strong general and cell-specific promoters and found seven DTSs. Of these, two perform ubiquitously, while five bind specific transcription factors expressed in a subset of cells.
As an alternative approach to directly labeling the plasmid with Cy3-PNAs, one can also carry out fluorescent in situ hybridization (FISH) to visualize injected DNA. DTS candidate plasmids can be tested for nuclear import activity over a 30 min to 8 hr period in microinjected A549 lung epithelial cells (Dean, D. A. Exp. Cell Res. 230, 293-302 (1997), Dean, D. A., et al., Exp. Cell Res. 253, 713-722 (1999), and Vacik, J., et al., Gene Therapy 6, 1006-1014 (1999)). […] This approach can allow one to rank sequences relative to the SV40 DTS based on their speed of nuclear import. Negative controls of the pUC57 plasmid with no DTS and a positive control of the pUC57-SV40 DTS can also be injected to ensure that the cells remain viable after injection and have the ability to transport DNA into the nucleus.
Importantly, existing MC and CEDT technologies are […] at PTC suppression in both cell culture and in vivo (FIGS. 4-7 and 10). […] Therefore, to improve nuclear targeting, transcription and PTC suppression, ACE-tRNA^ArgUGA MCs and CEDTs with the 72 nucleotide SV40 DTS and generally active DTS are generated. […]

For a further data set, the system named is PTC. The data set can be described thus: High resolution mass-spectrometry of the amino acid encoded at the PTC. The method, then: Assays were carried out to ascertain whether ACE-tRNAs identified in the screen were functionalized at the expense of recognition by the aminoacyl-tRNA synthetase. […] It was confirmed that using high resolution mass-spectrometry, the cognate amino acid for both ACE-tRNA^GlyUGA and -tRNA^TrpUGA were encoded with high fidelity, resulting in seamless PTC suppression.

Another data set concerns p.G542X-CFTR mRNA. The data set can be described thus: qPCR of steady state CFTR mRNA (NMD inhibition) in p.G542X 16HBE14o- cells. In kind it is cell-based, human. As to conditions: 48 hours after transfection, ACE-tRNA^Gly delivered as plasmid.
From the text: as §1, §2, §3

The next data set relates to UGA codon. Kind of data set: PTC suppression by ACE-tRNA: codon specificity and comparison with aminoglycosides. The format is cell-based. The text has this:
Using a novel high throughput cloning (HTC) and screening (HTS) method, a library of more than 500 suppressor tRNAs (ACE-tRNAs) was recently developed. In the library, the anticodon of human tRNA genes were engineered to recognize disease causing PTC codons (UAG, UAA and UGA). The ACE-tRNAs platform targeted all possible PTCs that are resultant of one nucleotide change from translated codons (tRNA^ArgUGA, tRNA^GlnUAA, tRNA^GlnUAG, tRNA^TrpUGA, tRNA^TrpUAG, tRNA^GluUAA, tRNA^GluUAG, tRNA^CysUGA, tRNA^TyrUAG, tRNA^TyrUAA, tRNA^LeuUGA, tRNA^LeuUAG, tRNA^LeuUAA, tRNA^LysUAG, tRNA^LysUGA, tRNA^SerUGA, tRNA^SerUAG, and tRNA^SerUAA).

A value given as a limit tells only on which side of the number the result lay.

B1: ACE-tRNA^LeuUGA: anti-codon edited leucine tRNA recognizing the UGA PTC, SEQ ID NO: 4 (nucleic acid)
chain: ACCAGAAUGGCCGAGUGGUUAAGGCGUUGGACUUCAGAUCCAAUGGAUUCAUAUCCGCGUGGGUUCGAACCCCACUUCUGGUA
modifications: expressed or natural sequence
Regarding B1, the “inhibition of NMD / rescue measured by qPCR” value with p.W1282X-CFTR mRNA was “significantly inhibited NMD”. The “rescue of CFTR mRNA” value in the data set on W1282X-CFTR mRNA (delivered via plasmids, FACS-sorted GFP+ and GFP− cells, RT-qPCR) is “significantly rescued”. Moreover, the “suppression of W1282X compared with Tryptophan ACE-tRNA” value in the data set with W1282X-CFTR mRNA (plasmids, 48 hours) is “more effectively”. The “inhibiting nonsense mediated decay compared with G418” value with W1282X-CFTR mRNA (plasmids, G418 100 uM, 48 hours, W1282X-CFTR cells) was “significantly more effective”.

B2: SV40 sequence: DNA sequence from the SV40 genome containing the enhancer repeats, DNA nuclear targeting sequence (nucleic acid)
DNA: ATGCTTTGCATACTTCTGCCTGCTGGGGAGCCTGGGGACTTTCCACACCCTAACTGACACACATTCCACAGCTGGTTGGTACCTGCA
modifications: listed as DNA, chemistry not fully specified
Turning to B2, in data set [1], the “localization after cytoplasmic injection” value was “nuclear localization” and the “time to plasmid nuclear import” value is recorded as no more than 30 min.

B3: ACE-tRNA^GlyUGA: anti-codon edited glycine tRNA recognizing the UGA PTC, SEQ ID NO: 5 (nucleic acid)
chain: GCGUUGGUGGUAUAGUGGUUAGCAUAGCUGCCUUCAAAGCAGUUGACCCGGGUUCGAUUCCCGGCCAACGCA
modifications: expressed or natural sequence
On to B3, for which the “fidelity of encoding the cognate amino acid” value in the data set on PTC is recorded as “high fidelity”. Besides, the “inhibition of NMD measured by qPCR” value in the data set with p.G542X-CFTR mRNA was “significantly inhibited NMD”. In the data set on UGA codon, the stop codon specificity result is “specific for the UGA codon”. Further, in the data set with UGA codon (48 hr incubation in HEK293 cells), the “PTC suppression compared with AMG G418 and gentamicin” value is reported as “significantly outperformed”.
